According to US20190031771A1 (University of Pennsylvania, published 2019):
Positions count from the first letter of the chain named.

Key:
human ADAMTS13 [1] = target: T1, human ADAMTS13 (human, UniProt Q76LX8 75-1427); assay: cell-based or functional assay
T1 sequence (looked up): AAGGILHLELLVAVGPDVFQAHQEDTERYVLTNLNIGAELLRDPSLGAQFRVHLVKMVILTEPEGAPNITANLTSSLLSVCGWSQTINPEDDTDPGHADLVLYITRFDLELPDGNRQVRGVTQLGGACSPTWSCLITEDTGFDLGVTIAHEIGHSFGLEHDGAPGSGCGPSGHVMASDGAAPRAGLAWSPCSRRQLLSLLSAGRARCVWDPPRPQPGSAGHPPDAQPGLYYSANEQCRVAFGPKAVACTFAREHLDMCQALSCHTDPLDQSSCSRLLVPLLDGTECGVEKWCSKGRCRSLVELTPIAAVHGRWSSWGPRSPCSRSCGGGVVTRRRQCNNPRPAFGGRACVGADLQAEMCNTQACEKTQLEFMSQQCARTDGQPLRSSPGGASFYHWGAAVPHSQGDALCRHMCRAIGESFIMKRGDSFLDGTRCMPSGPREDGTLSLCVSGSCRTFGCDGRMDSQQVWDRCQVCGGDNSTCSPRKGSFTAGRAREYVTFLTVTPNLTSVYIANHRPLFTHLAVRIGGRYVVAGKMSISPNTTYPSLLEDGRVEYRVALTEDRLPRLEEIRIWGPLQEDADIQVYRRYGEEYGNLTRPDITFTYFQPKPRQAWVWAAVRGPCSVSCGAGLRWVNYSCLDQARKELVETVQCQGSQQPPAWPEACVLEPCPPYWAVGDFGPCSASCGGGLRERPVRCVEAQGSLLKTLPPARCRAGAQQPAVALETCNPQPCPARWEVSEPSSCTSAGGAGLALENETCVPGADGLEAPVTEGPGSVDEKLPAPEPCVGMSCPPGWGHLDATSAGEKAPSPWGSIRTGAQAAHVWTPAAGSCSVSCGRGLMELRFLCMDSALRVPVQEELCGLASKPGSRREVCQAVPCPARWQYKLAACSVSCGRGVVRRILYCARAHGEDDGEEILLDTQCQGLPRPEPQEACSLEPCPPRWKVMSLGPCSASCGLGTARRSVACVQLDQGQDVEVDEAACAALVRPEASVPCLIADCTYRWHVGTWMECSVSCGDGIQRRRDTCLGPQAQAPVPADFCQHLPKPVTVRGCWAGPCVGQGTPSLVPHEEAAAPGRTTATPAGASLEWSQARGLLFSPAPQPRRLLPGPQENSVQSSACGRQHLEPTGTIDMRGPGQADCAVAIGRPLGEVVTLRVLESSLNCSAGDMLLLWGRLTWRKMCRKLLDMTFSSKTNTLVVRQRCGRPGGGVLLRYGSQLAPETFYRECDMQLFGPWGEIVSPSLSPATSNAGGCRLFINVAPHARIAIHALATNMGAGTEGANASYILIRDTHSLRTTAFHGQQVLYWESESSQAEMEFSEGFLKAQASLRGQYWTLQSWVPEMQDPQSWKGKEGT

[2] = target: T2, hemagglutinin ectodomain of influenza virus H1/PR/8/34 (influenza virus H1/PR/8/34, UniProt P03452 18-528); assay: immunoassay or flow cytometry
T2 construct: extracellular domain; also called HA H1/PR/8/34
T2 sequence (P03452 18-528): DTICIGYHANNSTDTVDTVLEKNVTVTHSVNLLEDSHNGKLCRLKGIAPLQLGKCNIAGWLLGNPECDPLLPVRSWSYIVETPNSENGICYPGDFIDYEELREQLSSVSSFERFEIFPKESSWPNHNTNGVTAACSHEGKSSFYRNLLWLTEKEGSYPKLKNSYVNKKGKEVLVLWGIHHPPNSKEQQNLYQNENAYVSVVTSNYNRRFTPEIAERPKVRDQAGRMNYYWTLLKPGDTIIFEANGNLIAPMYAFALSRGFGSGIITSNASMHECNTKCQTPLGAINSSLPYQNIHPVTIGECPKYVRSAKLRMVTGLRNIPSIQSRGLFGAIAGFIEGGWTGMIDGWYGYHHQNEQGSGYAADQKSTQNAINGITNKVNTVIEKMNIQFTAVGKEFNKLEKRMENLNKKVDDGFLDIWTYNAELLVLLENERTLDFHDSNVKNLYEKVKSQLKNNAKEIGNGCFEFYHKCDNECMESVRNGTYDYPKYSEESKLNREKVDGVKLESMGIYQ

human ADAMTS13 [3] = target: T1, human ADAMTS13; assay: phage ELISA on ADAMTS13-coated plates (positive: >10-fold absorbance above background)

B1: scFv 1-416 (scFv, V domains shown)
VH: QVQLVQSGAEVKKPGSSVRVSCTASGSNFSSHTINWVRQAPGQGLEWMGKVIPVLDISKHAQTFLGRVIITADKSTSTAYLELSSLRSEDTAIYYCAMDSVYGNFDFWGQGTLVTVSS
VL: ELVLTQPPSVSVSPGQTARITCSGDAFPKHYAYWYQQKPGQAPVLVIYKDTERPSGIPERFSGSSSGTTATLTISGVQAEDEADYYCQSTDSSDTWVFGAGTKVTVL
% ADAMTS13 activity in presence of scFv inhibitor (no rabbit IgG) (human ADAMTS13 [1]): 20%
binding result [2]: no binding

B2: scFv 1-428 (scFv, V domains shown)
VH: B1 VH with Q1E, R19K, T23K, Q43H, V51I, H60D, Q62E, I69V, L81M
VL: ELELTQPPSVSVSPGQTARITCSGDALPKQYAYWYQQKPGQAPVLVIYKDSERPSGIPERFSGSSSGTTVTLTISGVQAEDEADYYCQSADSSGTYEVFGGGTKLTVL
% ADAMTS13 activity in presence of scFv inhibitor (no rabbit IgG) (human ADAMTS13 [1]): 7%
binding result [2]: no binding

B3: scFv 1-431 (scFv, V domains shown)
VH: QVQLVQSGAEVKKFGSSVKVSCKASGGTFSSYTMSWVRQAPGQGLEWMGSFVPILERANYAQGFQGRVTFTADKSTSTAYMELGSLRSEDTAVYYCARDLGDFGDSWGQGTLVTVSS
VL: B1 VL with V3E, F27L, H30Q, T51S, A70V, T90A, D94G, W96Y, A100G, V104L
% ADAMTS13 activity in presence of scFv inhibitor (no rabbit IgG) (human ADAMTS13 [1]): 19%
binding result [2]: no binding

B4: scFv 1-420 (scFv, V domains shown)
VH: QVQLVQSGAEVKKPGSSVKVSCKASGGAFTMYTINWVRQAPGRGLEWMGRIIPILGITDYAQKFQGRGTITADKSTSTAYLELSGLTSEDTAVYYCAREFSGGNYFDFWGQGTLVTVSS
VL: ELELTQPPSVSISPGKTAKIFCGGNSIGRKSVHWYQQKPGQAPVLVVYDDSDRPSGIPERFSGSNSGNTATLTISRVEAGDEADYYCQVWDSSSDYVVFGGGTKLTVL
% ADAMTS13 activity in presence of scFv inhibitor (no rabbit IgG) (human ADAMTS13 [1]): 0%
binding result [2]: no binding

B5: scFv 1-303 (scFv, V domains shown)
VH: B3 VH with V52I, G63K, F70L
VL: B4 VL with I12V, S13A, K19R, F21T, S26N, R29S, Y96H, V97Y, G101T, L105V
binding result [2]: no binding
binding result (human ADAMTS13 [3]): binds

B6: scFv 1-434 (scFv, V domains shown)
VH: QVQLVQSGAEVKKPGSSVKVSCKASGGSFSDYTIIWLRQARGHGLEWMGKIVPILGVTTYAQEFQGRITITADRSTSTAYMELSSLRSEDTAVYYCARFLWGLDVWGQGTTVTVSS
VL: B4 VL with E3V, I12V, S13A, K16Q, K19R, F21T, S26N, R29S, Y96H, K104E
binding result [2]: no binding
binding result (human ADAMTS13 [3]): binds

B7: scFv 3-301 (scFv, V domains shown)
VH: EVQLVQSGAEVKKPGSSVKVSCKASGGTFSSYAISWVRQAPGQGLEWMGGIIPILGITNYAQKFQGRVTITADESTGAAYMELSSLASEDTAVYYCARDDTGRDDYFEYWGQGTLVTVSS
VL: B2 VL with E3V, S93N, E97K, K104E
binding result [2]: no binding

B8: scFv 3-302 (scFv, V domains shown)
VH: QVQLVQSGAEVKRPGSSVKVSCKASGNTFSNYHINWVRQAPGQGLQWMGGIIPILGRTNYAQNFQGRVTITTDESTNTAYMELTSLRSEDTAVYYCAREARDSFDFWGQGTMVTVSS
VL: ELVLTQPPSVSVSPGQTASITCSGDKLGHTYTSWYQQKPGQSPVLVIYQDNRRPSGLPERFSGSNSGNTATLTISRVEAGDEADYYCQVWESSSDHLVFGGGTELTVL
binding result [2]: no binding
binding result (human ADAMTS13 [3]): binds

B9: scFv 1-438 (scFv, V domains shown)
VH: QVQLVQSGAEVKKPGSSVKVSCKASGGTFSNYDITWVRQAPGQGLEWVGKVIPILDVTNYAQKFQGRVTITADKSTSTAYMELSNLTSEDTAVYFCARFLWGLDVWGQGTMVTVSS
VL: ELVLTQPPSVSVAPGQTARITCGGNNIGSKSVHWYQQKPGQAPVLVVYDDSDRPSGIPERFSGSNSGNTATLTISRVEAGDEADYYCQVWDSSSDHKVFGGGTELTVL
binding result [2]: no binding
binding result (human ADAMTS13 [3]): binds

B10: scFv 3-405 (scFv, V domains shown)
VH: B8 VH
VL: B9 VL with Q16K, G24E, V47I, D49Y, S51T, E59A, H96Q, K97R
binding result [2]: no binding
binding result (human ADAMTS13 [3]): binds
